# Data taken from patent US20230357391A1 (EXELIXIS, published 2023).
# Changes are numbered by the printed parent chain. Values joined by “and” are separate entries in the source; they are usually repeats but may differ in a detail not shown here. Equal values may be shown once.
# B1: Antibody C40 (antibody, human IgG1, kappa, V domains shown)
# VH: EVQLVESGGGLVQPGGSLRLSCAASGFTFSYYYIHWVRQAPGKGLEWVAWIDPYGHSTTYADSVKGRFTISADTSKNTAYLQMNSLRAEDTAVYYCARGGRGAMDYWGQGTLVTAST
# VL: DIQMTQSPSSLSASVGDRVTITCRASQSVSSAVAWYQQKPGKAPKLLIYSASSLYSGVPSRFSGSRSGTDFTLTISSLQPEDFATYYCQQRYSSLLTFGQGTKVEIKR
# notes: Full length IgG
# B2: Antibody C59 (antibody, human IgG1, kappa, V domains shown)
# VH: B1 VH with S30T, Y31S, W50Y, P53S, Y54K, G55H, H56G, S57T, T59Q, G102S
# VL: B1 VL with Y92T, S93T
# notes: Full length IgG
# Legend:
# human CD47 on cells [1] = target: T1, human CD47 on cells (human, UniProt Q08722 19-323); assay: cell-based or functional assay
# human CD47 on cells [2] = target: T1, human CD47 on cells; assay: flow cytometry, MDA-MB-231 cells
# Procedure: Cells were harvested at 70-90% confluence on the day of the assay. Cells were collected by centrifugation at 200xg for 5 minutes and media was removed. Cells were resuspended at 2×10⁶ cells per mL in cold PBS. An 8-point antibody dilution series (2x concentration) was prepared in PBS to cover the expected binding affinities of the antibodies being tested. […] 50 µL per well of cell suspension was added. Plates were placed at 4° C. for 45-60 minutes.
# Cells were collected by centrifugation at 400xg for 7 minutes and secondary antibody was removed. Cells were resuspended in 50 µL per well of PBS and analyzed by flow cytometry. Binding curves were calculated using the mean fluorescence intensity (MFI) of the FITC fluorescence signal on the cells.
# mouse CD47 = target: T2, mouse CD47 (mouse, UniProt Q61735-2 19-158, limits assumed, biotinylated); assay: BLI (Octet), mouse CD47 on sensor; X = no mouse cross-reactivity
# T2 construct: also called mCD47
# T2 sequence (looked up): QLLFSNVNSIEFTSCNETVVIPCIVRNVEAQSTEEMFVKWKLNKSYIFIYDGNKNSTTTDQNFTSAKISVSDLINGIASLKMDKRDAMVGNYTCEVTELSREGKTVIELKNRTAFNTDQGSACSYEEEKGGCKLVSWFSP
# Source text: Mouse CD47 was obtained from Acro Biosystems (Acro Cat. No. CD7-M82E4, Acro Cat. No. CD7-M522b) and biotinylated using standard protocols. The free biotin was removed by extensive dialysis against PBS. Biotinylated antigen (CD47) was immobilized on a streptavidin sensor. The cross-reactive antibodies were identified by the association to mouse CD47 using Octet.
Binder,IC50 (human CD47 on cells [1]) [µM],EC50 (human CD47 on cells [2]),binding result (mouse CD47)
B1,0.00538,> 1 µM,
B2,0.14,0.2 to 1 µM and 0.55 µM,no binding
